Test results reported in the supplement of paper PMC10567573.

B1: SPDEF (parent)
chain: YPEDSSWAAKAPGASSREEPPEEP
B2: CDC25A (parent)
chain: QLIDPDENKENEAFEFKKPVRPVS

Variants of: B1
Test: protein stability index of a GFP-peptide fusion (GPS, HEK-293T) (PSI 1-6); higher = more stable
Details: c terminus: a fixed tail appended
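Note: lentivirally expressed fusions sorted by FACS into six bins by GFP to DsRed ratio, PSI derived from sequencing read proportions per bin multiplied by bin number.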

Protein stability index, by site and new letter:
A14: S 4.95; W 3.31; M 3.15; I 4.56; D 4.37; T 4.03; E 3.88
E3: R 3.78; H 3.05; W 2.18; K 3.9; M 2.49; G 2.72; F 2.99; Q 3.24; V 4.09; T 3.82; N 2.49; Y 2.37
E23: S 3.1; F 3.89; L 3.45; C 4.3; K 2.69; D 4.44
E19: W 3.53; F 3.06; M 4.07; N 4.32; K 3.91; H 3.12; C 3.58; Q 3.69; D 3.37
A9: E 5.42; Q 4.04; V 3.82; M 4.11; I 3.23; R 4.36; Y 2.88; W 3.11
W7: Y 5.92; D 6; T 5.98; A 5.85; N 5.91; H 5.95; F 5.86; S 5.79; E 5.88
Y1: V 5.76; F 3.03; T 5.68; D 5.97; M 5.93
P2: C 1.94; M 5.18; R 5.43; G 3.9; A 1.79; F 5.57
R17: M 4.22; I 4.85; Q 4.06; V 4.3; P 3.85; L 3.62; C 3.96; N 4.14
E22: P 3.06; K 3.88; C 3.49; S 2.71; F 3.43
P12: S 4.16; I 3.62; R 3.76; T 4.58; D 3.97; M 3.68
G13: E 4.05; A 3.64; N 4.22; T 3.91; L 4.09; Q 4.07
S6: V 2.94; N 4.9; H 4.38; T 4.57; I 2.51
S15: M 3.77; D 4.61; Q 3.47; R 3.96; E 4.14; L 3.58; P 4.36; N 3.9; H 4.72
P21: A 3.63; L 4.04; Y 4.3; V 3.91; N 4.12; F 3.76; H 4.13; E 4.26
A8: D 5.61; L 4.72; Q 4.34; Y 3.17; H 2.87; F 3.33; C 4.09
K10: C 2.56; S 3.69; T 3.36; I 3.65; H 3.26; A 2.79; F 2.79
A11: R 4.78; M 2.63; P 4.6; E 3.99; I 3.51; G 3.68
S16: L 4.36; K 4.51; V 3.78; C 3.83; H 3.92; M 4.67; I 3.86; N 3.53
P24: N 4.54; Y 4.17; H 3.42; C 4.4
E18: W 3.3; T 3.24; M 3.77; V 4.17; R 4.32; N 3.43; S 4.18
P20: V 4.26; N 3.62; I 3.82; Q 3.46
S5: Q 4.03; E 5.72; F 3.86; T 4.55; M 4.58
D4: N 2.4; T 2.39

Variants of: B2
Test: as above
Details: c terminus: a fixed tail appended

Protein stability index of substitutions, site by site:
Q1: A 4.36; C 3.81; D 2.88; E 4.56; F 4.05; H 4.72; I 3.39; L 2.93; M 3.97; N 3.83; P 4.06; R 3.44; S 4.43; T 3.58; V 3.6; W 2.44; Y 2.32
L2: A 4.69; C 4.64; D 4.51; E 5.02; F 3.35; H 4.54; I 2.73; K 4.29; M 3.72; N 4.58; P 5.03; Q 4.41; S 4.16; T 4.31; V 3.29; W 3.43; Y 4.17
I3: A 4.23; C 3.92; D 4.64; E 4.74; F 3.91; G 4.58; H 4.59; K 3.86; L 3.15; M 3.75; N 3.6; P 4.3; Q 3.95; R 4.75; T 4.12; V 4.05; Y 3.74
D4: A 3.67; C 3.37; E 3.99; F 4.09; G 3.56; H 4.23; I 3.83; K 3.87; L 3.91; M 3.94; N 3.2; R 3.3; S 3.58; T 3.65; V 3.44; W 3.45; Y 3.84
P5: A 3.99; C 4.12; D 3.92; F 2.88; G 3.9; H 3.61; I 3.07; K 3.95; M 3.88; N 4.06; Q 3.87; R 3.66; S 3.25; T 3.61; V 3.74; W 3.51; Y 2.85
D6: A 3.75; C 4.51; E 3.88; F 3.88; G 3.64; H 3.94; I 4.22; K 3.87; L 3.23; M 4.14; N 4.4; P 4.53; Q 4.6; R 3.58; S 3.74; T 3.87; V 3.83; W 3.59; Y 4.02
E7: A 4.25; C 4; D 3.97; F 3.63; G 3.02; H 3.94; I 4.06; K 4.59; L 3.33; M 3.95; N 3.42; P 4.68; Q 3.58; R 3.92; S 3.37; T 4.15; V 4.11; W 3.3; Y 3.45
N8: A 4.31; C 4.45; D 4.28; E 3.95; F 4.08; G 5.06; H 4.59; I 4.7; K 4.5; L 4.52; M 4.09; P 4.28; Q 4.95; R 4.86; S 4.05; T 4.61; V 4.94; Y 3.59
K9: A 4.37; C 4.54; D 4.97; E 4.62; F 4.04; G 4.2; H 4.18; I 3.89; L 3.51; M 4.09; N 4.65; P 4.62; Q 4.74; R 4.21; S 4.39; T 4; V 4.83; W 3.82; Y 5.01
E10: A 4.25; C 3.84; D 3.98; F 3.12; G 4.33; I 4.13; K 4.35; L 3.97; M 3.71; N 3.78; P 3.1; Q 4.29; R 4.43; S 4.2; T 4.3
